Consider seven molecules from patent publication US20170296650A1 (Novartis, published 2017).

A value given as a limit tells only on which side of the number the result lay.

Experiment [1] addresses T1, hCMV gH + gL + UL128 + UL130 + UL131A (5-member complex; HEK293T co-transfectant) (hCMV, UniProt P12824 24-743; P16832 31-278; P16837 1-171; P16772 1-214).
T1 construct: whole, on cells; in the functional rows it stands for the complex on virions or transduced cells of the strain or isolate named in the readout; also called gH/gL/UL128-131A complex; pentameric complex
Kind of experiment: cell competition; competitor 10F7-biotin.

In experiment [2] the target is T2, hCMV UL130 + UL131A (HEK293T co-transfectant) (hCMV, UniProt P16772 1-214). The experiment is described as follows: cell-based or functional assay.
T2 sequence (P16772 whole entry): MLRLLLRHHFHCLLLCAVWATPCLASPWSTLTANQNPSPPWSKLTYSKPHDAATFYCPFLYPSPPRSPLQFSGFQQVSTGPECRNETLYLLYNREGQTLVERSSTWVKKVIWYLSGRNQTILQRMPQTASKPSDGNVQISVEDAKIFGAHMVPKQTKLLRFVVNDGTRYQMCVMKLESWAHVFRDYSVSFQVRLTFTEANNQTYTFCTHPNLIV
Experiment [3] has as its target T2, hCMV UL130 + UL131A (HEK293T …). Kind of experiment: cell-based or functional assay. This is another data set of the same source.
Experiment [4] has as its target T1, hCMV gH + gL + UL128 + UL130 + UL131A …. Kind of experiment: cell competition; competitor 1F11-biotin.
Experiment [5] addresses T3, hCMV gH (HEK293T transfectant) (hCMV, UniProt P12824 24-743). The experiment is described as follows: cell-based or functional assay.
Experiment [6] has as its target T3, hCMV gH (HEK293T transfectant). Kind of experiment: cell-based or functional assay. The source holds these as a separate data set.
For experiment [7], the target named is T1, hCMV gH + gL + UL128 + UL130 + UL131A …. The experiment is described as follows: cell competition; competitor 6G4-biotin.
For experiment [8] the target is unchanged. The experiment is described as follows: cell competition; competitor 8I21-biotin.
For experiment [9] the target is unchanged. The experiment is described as follows: cell competition; competitor 2C12-biotin.
For experiment [10] the target is unchanged. The experiment is described as follows: cell competition; competitor 15D8-biotin.
The target is the same in experiment [11]. Kind of experiment: cell competition; competitor 4I22-biotin.
For experiment [12] the target is unchanged. The experiment is described as follows: cell competition; competitor 2F4-biotin.
Experiment [13] shares this target. The experiment is described as follows: cell competition; competitor 4N10-biotin.
The target is the same in experiment [14]. Kind of experiment: cell competition; competitor 5A2-biotin.

B1: 8L13 (antibody, V domains shown)
VH: QVQLLESGGGVVQPGRSLRLSCAASGFTFSNYGMHWVRQAPGKGLEWVAVIWNDGSKKYYAESVKGRFTISRDNSKNTVYLQMNSLRAEDTAVYYCARDEGVQMVFAMPDYGMDVWGQGTTVTVSS
VL: SYELTQPPSVSVSPGQTASITCSGDKLGDKFACWYQQRPGQSPILVIYQDSKRPSGIPERFSGSNSGNTATLTIRGTQAMDEADYYCQAWDSSTAHYVFGTGTKVTVL
notes: human IgG
Turning to B1, in [1], the “Inhibition of binding (%)” value came to 100%. In addition, in experiment [2], the “50% neutralization VR1814, ARPE” value is under 0.01 µg/mL and the “50% neutralization VR1814, MRC-9” value is over 2 µg/mL. Besides, in experiment [3], the “90% neutralization VR1814, ARPE” value came to 0.001 µg/mL and the “90% neutralization VR1814, MRC-9” value is over 10 µg/mL. Besides, the “Inhibition of binding (%)” value in [4] amounted to 100%.

B2: 13H11 (antibody, V domains shown)
VH: QVQLVQSGAEVKKPGASVKVSCKASGYTFTNYYIHWVRQAPGQGLEWMGIIHPSSGGTSYAQKFQGRVTMTRDTSTSTVSMDLSSLRSEDTAVYYCGRAFRILGLSDVFVNDWGQGTVVTVSS
VL: DIQMTQSPSSLSASVGDRVTITCRASQGINNYLAWYQQKPGKVPKLLIYAASTLQSGVPSRFSGSGSGTAFTLTILSLQPEDVATYYCQKYNSAPFTFGPGTKVDIK
In the case of B2, in experiment [5], the “50% neutralization VR1814, ARPE” value is under 0.01 µg/mL and the “50% neutralization VR1814, MRC-9” value was at most 2 µg/mL. Further, in experiment [6], the “90% neutralization VR1814, ARPE” value was 0.4 µg/mL and the “90% neutralization VR1814, MRC-9” value was 1.12 µg/mL.

B3: 3G16 (antibody, V domains shown)
VH: QSALTQPASVSGSPGESITISCTGTISDVGAYNSVSWYQQHSGTAPELIIYDVTNRPAGVSSRFSGSKSGNTASLTISWLQSEDEAEYYCSSYTTSDTYVFGSGTQVTVL
V domain: RAQLVQSAAEMKNPGASVKVSCEASGYTFTGYYVHWMRQAPGQGLEWMGWINPMTGATKSPQKFQGRVTMTRDTSTTATHIELTRLRSDDSAVFFCARGGPTSTRITGKRHFDLWGRGTLITVAS
notes: human IgG; also called 3G16-biotin
Take B3: the “Inhibition of binding (%)” value in [7] was found to be 0%. The “Inhibition of binding (%)” value in experiment [8] stood at 0%. In addition, in experiment [5], the “50% neutralization VR1814, ARPE” value is at most 2 µg/mL and the “50% neutralization VR1814, MRC-9” value was at most 2 µg/mL. For the same molecule, in experiment [6], the “90% neutralization VR1814, ARPE” value was found to be 0.3 µg/mL and the “90% neutralization VR1814, MRC-9” value was determined as 1 µg/mL. Moreover, in experiment [9], the “Inhibition of binding (%)” value came to 0%.

B4: 11B12 (antibody, V domains shown)
VH: QMQLVQSGPQVKKPGTSVKVSCKASGFTFTSSAMQWVRQARGQRPEWIGWIVLGSGNTNYAQKFQERVTLTRDMSTATAYMELSSLRSEDTAVYYCAADRGRGGYNVYTYWGQGTLVAVSS
VL: EIVMTQSPGTLSLSPGERATLSCRASQTISNTYVAWYQQKPGQAPRLLIYGASSRATGIPDRFSGSGSGTDFTLTIRRLEPEDFAVYYCQQNGQSPWTFGQGTNVEIK
Regarding B4, in experiment [5], the “50% neutralization VR1814, ARPE” value was at most 2 µg/mL and the “50% neutralization VR1814, MRC-9” value is at most 2 µg/mL. In addition, in experiment [6], the “90% neutralization VR1814, ARPE” value amounted to 1.2 µg/mL and the “90% neutralization VR1814, MRC-9” value was determined as 3.5 µg/mL.

B5: 10P3 (antibody, V domains shown)
VH: EVQLVESGGGLVRPGGSLRLSCAASGFTFHNYRMNWVRQAPGKGLEWVANIKQDGSEKSYVDSVRGRFTTSRDNSKNSLYLQINSLRAEDTAVYYCARGEGYTYGVVYSYSAMDVWGQGTTVIVSS
VL: SYELTQPPSVSVSPGQTARITCSGNVLPNQYASWYQQKPGQAPVLVIYKDTERPSGIPGRFSGSSSGTTVTLTISGVQAEDEADYYCQSADSSGADYVFGTGTKVTVL
notes: human IgG
Regarding B5, the “Inhibition of binding (%)” value in [7], in experiment [10], in experiment [8], in experiment [9], in experiment [11] and in experiment [12] was 0% in each case. The “Inhibition of binding (%)” value in experiment [4] was 0%. Also, in experiment [2], the “50% neutralization VR1814, ARPE” value was under 0.001 µg/mL. Further, in experiment [2], the “50% neutralization VR1814, MRC-9” value is over 2 µg/mL. For the same molecule, the “90% neutralization VR1814, ARPE” value in [3] is 0.0025 µg/mL. In addition, in experiment [3], the “90% neutralization VR1814, MRC-9” value was over 10 µg/mL.

B6: 4N10 (antibody, V domains shown)
VH: QVQLVQSGAEVKKPGSSVRVSCKASGGTFSSYVIIWVRQAPGQGLEWMGGVIPIFDTVNYAQKFQGRVTITADESTSTAYMELSSLKSEDTAVYYCARGILAYCGGDCYNTPYGMDVWGQGTTVTVSS
VL: DIQMTQSPSILSASVGDRVTITCRASQSISSWLAWYQQKPGKAPKLLIYKASSLEIGVPSRISGSGSGTEFTLTISSLQPDDFATYYCQQYNSSWTFGQGTKVEIK
notes: human IgG; also called 4N10-biotin
Take B6: the “Inhibition of binding (%)” value in experiment [7] amounted to 0%; in experiment [10] it was 0%; in experiment [8], 90%; in [1], 0%; in [9], 0%; in experiment [13], 100%. Further, the “Inhibition of binding (%)” value in experiment [11] amounted to 0%; in experiment [14], 100%; in experiment [12], 0%; in experiment [4], 0%. Also, in experiment [2], the “50% neutralization VR1814, ARPE” value is under 0.001 µg/mL. Further, the “50% neutralization VR1814, MRC-9” value in experiment [2] was at most 2 µg/mL. Besides, the “90% neutralization VR1814, ARPE” value in experiment [3] came out at 0.02 µg/mL. Besides, the “90% neutralization VR1814, MRC-9” value in [3] is over 10 µg/mL.

B7: 10F7 (antibody, V domains shown)
VH: EVQLVESGGGLVQPGRSLRLSCTASGFTFGDYAMSWFRQAPGKGLEWVGFIRSKAYGGTTEYAASVKGRFTISRDDSKSIAYLQMNSLKTEDTAVYYCTRASSLLWLLNPQPNFDYWGQGTLVTVSS
VL: SYVLTQPPSVSVAPGQTARITCGGNNIGSNNVHWYQQKPGQAPVLVVYDDSDRPSGIPERFSGSNSGNTATLTISRVEAGDEADYYCQVWDSSSDHPVFGGGTKLTVL
notes: human IgG; also called 10F7-biotin
Turning to B7, the “Inhibition of binding (%)” value in experiment [7] turned out to be 0%; in experiment [10] it was 0%; in experiment [8], 0%; in [1] it was 100%; in experiment [9], 0%; in experiment [13], 0%. Besides, the “Inhibition of binding (%)” value in experiment [11] came out at 100%; in experiment [14], 0%; in [12] it was 100%; in [4], 100%. Also, the “50% neutralization VR1814, ARPE” value in [2] is under 0.01 µg/mL. Further, the “50% neutralization VR1814, MRC-9” value in [2] was at most 2 µg/mL. Besides, the “90% neutralization VR1814, ARPE” value in [3] worked out at 0.002 µg/mL. In experiment [3], the “90% neutralization VR1814, MRC-9” value was over 10 µg/mL.
